Patent US20210128704A1 (UNIVERSITY OF MIAMI, published 2021)

Biological target: T1, ITPR1 (inositol 1,4,5-trisphosphate receptor type 1) (UniProt Q14643 1-2758, limits assumed)
T1 construct: Endogenous protein of the transfected cells, tested by co-immunoprecipitation and western blot
Test: co-immunoprecipitation with antibodies to the tag and western blot, HEK293 cells before and after forskolin
Description: Overexpression of V5-Car10 and V5-CA10 inhibits ATP-induced free calcium release in vitro: ITPR1 contains functionally distinct domains, including the ‘modulatory’ domain responding to intracellular modulators such as calcium, calmodulin, ATP, and carbonic anhydrase-8 (Car8). ATP increases ITPR1-dependent calcium release by increasing the open probability of the channel in the presence of activating concentrations of IP3 and calcium. It is believed that Car8-mediated inhibition of ITPR1 activation and ATP-mediated calcium release requires binding to this modulatory domain. […] Co-immunoprecipitation of each protein with antibodies to V5 tag with ITPR1 and pITPR1 before and after forskolin stimulation of HEK293 cells was conducted.

T1 sequence (Q14643 whole entry): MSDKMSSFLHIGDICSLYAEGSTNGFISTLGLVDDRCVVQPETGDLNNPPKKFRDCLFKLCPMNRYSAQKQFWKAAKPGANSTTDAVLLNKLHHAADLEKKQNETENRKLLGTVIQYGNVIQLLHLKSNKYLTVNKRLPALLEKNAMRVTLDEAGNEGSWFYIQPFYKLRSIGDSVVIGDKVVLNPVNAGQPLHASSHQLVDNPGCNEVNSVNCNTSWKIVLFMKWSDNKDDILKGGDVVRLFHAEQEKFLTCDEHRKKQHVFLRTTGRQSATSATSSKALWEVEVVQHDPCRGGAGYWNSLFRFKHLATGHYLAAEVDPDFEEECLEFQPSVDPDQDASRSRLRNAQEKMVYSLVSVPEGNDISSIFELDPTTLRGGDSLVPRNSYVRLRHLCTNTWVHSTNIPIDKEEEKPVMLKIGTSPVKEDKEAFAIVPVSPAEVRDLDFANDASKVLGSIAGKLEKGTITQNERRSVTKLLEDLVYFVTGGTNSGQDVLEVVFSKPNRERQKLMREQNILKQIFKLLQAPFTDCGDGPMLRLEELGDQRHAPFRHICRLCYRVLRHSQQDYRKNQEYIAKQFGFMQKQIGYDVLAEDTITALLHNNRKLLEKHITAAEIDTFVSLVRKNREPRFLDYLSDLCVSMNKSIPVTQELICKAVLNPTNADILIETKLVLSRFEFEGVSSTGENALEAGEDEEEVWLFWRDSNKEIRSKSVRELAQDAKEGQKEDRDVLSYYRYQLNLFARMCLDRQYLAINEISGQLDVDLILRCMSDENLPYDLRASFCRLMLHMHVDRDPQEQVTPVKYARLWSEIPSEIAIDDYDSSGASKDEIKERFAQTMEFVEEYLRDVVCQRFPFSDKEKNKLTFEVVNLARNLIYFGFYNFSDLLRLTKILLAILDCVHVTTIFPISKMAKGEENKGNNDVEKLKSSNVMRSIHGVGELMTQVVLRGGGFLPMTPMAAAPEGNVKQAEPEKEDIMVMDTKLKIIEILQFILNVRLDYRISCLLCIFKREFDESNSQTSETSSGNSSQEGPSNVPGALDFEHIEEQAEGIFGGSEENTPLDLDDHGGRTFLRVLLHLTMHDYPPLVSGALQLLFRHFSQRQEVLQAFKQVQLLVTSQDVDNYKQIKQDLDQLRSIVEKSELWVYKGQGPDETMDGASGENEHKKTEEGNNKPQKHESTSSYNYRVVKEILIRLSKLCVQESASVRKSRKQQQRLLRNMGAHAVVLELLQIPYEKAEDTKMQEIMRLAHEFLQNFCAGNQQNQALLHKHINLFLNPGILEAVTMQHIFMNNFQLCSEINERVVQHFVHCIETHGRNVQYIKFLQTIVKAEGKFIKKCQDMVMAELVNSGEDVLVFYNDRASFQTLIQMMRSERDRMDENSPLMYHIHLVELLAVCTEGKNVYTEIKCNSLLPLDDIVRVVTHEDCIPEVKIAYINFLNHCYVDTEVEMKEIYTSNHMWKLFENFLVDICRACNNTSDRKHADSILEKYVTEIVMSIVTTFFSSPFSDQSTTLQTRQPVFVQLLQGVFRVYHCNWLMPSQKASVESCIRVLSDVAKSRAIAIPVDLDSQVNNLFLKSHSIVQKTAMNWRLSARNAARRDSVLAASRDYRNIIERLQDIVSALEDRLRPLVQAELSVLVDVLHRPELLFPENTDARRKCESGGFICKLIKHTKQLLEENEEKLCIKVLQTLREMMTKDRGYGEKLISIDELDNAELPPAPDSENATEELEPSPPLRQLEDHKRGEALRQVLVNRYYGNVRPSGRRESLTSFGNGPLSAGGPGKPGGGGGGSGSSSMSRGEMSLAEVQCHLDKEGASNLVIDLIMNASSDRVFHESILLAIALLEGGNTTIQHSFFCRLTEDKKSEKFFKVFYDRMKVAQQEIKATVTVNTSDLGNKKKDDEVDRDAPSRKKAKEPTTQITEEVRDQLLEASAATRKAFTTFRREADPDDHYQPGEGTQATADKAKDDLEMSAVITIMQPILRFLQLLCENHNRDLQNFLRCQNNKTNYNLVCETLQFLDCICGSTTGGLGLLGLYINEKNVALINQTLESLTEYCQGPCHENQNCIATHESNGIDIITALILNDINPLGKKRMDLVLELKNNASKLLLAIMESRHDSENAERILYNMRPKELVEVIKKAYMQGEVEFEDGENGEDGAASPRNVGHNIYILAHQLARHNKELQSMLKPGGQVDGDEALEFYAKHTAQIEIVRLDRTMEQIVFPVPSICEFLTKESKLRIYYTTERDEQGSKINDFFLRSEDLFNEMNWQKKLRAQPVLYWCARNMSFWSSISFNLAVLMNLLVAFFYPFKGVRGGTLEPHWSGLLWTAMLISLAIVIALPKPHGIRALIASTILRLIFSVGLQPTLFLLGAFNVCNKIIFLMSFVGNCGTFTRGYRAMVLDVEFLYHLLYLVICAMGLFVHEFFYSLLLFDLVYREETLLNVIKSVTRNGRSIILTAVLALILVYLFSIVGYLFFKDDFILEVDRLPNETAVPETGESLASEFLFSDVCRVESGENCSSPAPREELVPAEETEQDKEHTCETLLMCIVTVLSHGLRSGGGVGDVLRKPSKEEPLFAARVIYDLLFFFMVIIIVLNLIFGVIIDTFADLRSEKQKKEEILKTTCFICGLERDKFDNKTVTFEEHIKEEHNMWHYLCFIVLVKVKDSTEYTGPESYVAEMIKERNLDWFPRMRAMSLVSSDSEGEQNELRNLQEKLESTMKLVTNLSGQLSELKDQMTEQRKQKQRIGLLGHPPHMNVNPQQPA

binding result: no binding
B1: CA8-204 (carbonic anhydrase 8 fragment, alternative transcript product) (other, not shown: small tags and cut ends)
chain: MADLSFIEDTVAFPEKEEDEEEEEEGVEWGYEEGVEWGLVFPDANGEYQSPINLNSREARYDPSLLDVRLSPNYVVCRDCEVTNDGHTIQVILKSKSVLSGGPLPQGHEFELYEVRFHWGRENQRGSEHTVNFKAFPMEVRITNHLVKILFSE
notes: Expressed in HEK293 cells; also called CA8 fragment
